# Data reported in paper PMC6829864, “Determination of Ligand Profiles for Pseudomonas aeruginosa Solute Binding Proteins” (International Journal of Molecular Sciences, 2019).
# “Also recorded” adds a separate entry of the source. Where a SMILES comes first, the peptide text is derived from it.
# Columns and labels:
# PA4497 (dppA2) = target: T1, PA4497 (dppA2) (Pseudomonas aeruginosa, UniProt Q9HVS4); type: binding; conditions: arrays PM3B, PM6, PM7, PM8
# T1 sequence (Q9HVS4 25-532): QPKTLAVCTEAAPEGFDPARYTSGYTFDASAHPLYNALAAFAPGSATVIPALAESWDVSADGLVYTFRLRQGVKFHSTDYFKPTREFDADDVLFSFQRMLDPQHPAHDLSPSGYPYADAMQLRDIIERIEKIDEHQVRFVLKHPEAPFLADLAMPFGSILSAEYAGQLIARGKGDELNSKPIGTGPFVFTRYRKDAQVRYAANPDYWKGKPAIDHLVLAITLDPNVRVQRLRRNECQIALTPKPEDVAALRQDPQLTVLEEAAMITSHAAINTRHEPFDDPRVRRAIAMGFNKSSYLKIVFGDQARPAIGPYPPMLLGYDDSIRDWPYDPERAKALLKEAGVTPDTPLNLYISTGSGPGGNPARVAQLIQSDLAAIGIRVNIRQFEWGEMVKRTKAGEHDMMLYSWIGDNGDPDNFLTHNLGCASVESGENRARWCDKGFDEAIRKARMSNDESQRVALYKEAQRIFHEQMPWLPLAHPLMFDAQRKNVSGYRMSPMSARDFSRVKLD
# PA1493 (cysP) = PA1493 (cysP) (Pseudomonas aeruginosa, UniProt Q9I3L9); experiment: biochemical; type: binding, Pseudomonas aeruginosa PAO1; conditions: PA1493 (cysP); 25 °C
# PA1493 (cysP), sequence (Q9I3L9 23-332): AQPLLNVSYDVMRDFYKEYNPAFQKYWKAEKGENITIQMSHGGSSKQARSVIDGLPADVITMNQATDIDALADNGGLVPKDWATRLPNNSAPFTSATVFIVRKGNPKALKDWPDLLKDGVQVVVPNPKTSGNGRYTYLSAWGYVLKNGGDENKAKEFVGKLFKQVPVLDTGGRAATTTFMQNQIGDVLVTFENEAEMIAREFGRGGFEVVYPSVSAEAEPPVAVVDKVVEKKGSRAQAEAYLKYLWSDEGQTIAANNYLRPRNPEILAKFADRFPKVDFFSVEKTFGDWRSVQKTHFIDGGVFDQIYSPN
# PA1863 (modA) = PA1863 (modA) (Pseudomonas aeruginosa, UniProt Q9I2N2); experiment: biochemical; type: binding, Pseudomonas aeruginosa PAO1
# PA1863 (modA), sequence (Q9I2N2 24-251): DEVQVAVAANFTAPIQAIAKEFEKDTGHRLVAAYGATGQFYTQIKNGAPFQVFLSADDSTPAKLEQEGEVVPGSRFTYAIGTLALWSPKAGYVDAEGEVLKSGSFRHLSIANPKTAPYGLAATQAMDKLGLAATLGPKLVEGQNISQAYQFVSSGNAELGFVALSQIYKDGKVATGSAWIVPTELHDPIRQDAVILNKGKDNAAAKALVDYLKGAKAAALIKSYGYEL
# [1] = test system: Pseudomonas aeruginosa PAO1; type: cell-based; conditions: capillary assay; chemoeffector 1 mM, except molybdate 0.1 mM; 30 min
# PA4913 = PA4913 (Pseudomonas aeruginosa, UniProt Q9HUQ0); experiment: DSF thermal shift ligand screening, PA4913; type: binding, Pseudomonas aeruginosa PAO1; conditions: Tm change vs ligand-free protein
# PA4913, sequence (Q9HUQ0 28-374): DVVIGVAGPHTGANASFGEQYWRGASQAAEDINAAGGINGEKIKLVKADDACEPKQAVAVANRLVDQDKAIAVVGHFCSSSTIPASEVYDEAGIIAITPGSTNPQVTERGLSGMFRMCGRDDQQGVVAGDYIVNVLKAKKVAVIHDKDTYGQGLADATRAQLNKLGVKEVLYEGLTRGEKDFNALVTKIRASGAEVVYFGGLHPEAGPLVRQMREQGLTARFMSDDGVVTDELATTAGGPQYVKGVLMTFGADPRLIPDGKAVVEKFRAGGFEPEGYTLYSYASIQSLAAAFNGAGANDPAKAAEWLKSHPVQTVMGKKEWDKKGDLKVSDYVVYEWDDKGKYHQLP
# [2] = target: PA4500 (DppA3) (Pseudomonas aeruginosa PAO1) (UniProt Q9HVS1); experiment: ITC
# PA4500 (DppA3) (Pseudomonas aeruginosa PAO1), sequence (Q9HVS1 25-533): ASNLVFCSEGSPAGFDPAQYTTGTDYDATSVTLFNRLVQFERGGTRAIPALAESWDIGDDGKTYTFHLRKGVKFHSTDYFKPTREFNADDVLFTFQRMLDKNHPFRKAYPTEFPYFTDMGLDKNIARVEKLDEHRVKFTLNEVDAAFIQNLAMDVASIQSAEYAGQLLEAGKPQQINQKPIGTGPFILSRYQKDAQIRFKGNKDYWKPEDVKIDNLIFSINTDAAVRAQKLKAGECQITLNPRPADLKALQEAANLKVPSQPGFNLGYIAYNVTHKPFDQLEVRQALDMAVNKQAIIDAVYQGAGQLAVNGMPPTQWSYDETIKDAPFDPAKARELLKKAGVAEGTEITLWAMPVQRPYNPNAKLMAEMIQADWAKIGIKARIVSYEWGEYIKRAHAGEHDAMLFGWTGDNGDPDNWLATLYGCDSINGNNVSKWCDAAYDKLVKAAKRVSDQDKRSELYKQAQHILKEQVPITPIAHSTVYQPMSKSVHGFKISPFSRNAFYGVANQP
# [3] = target: PA4500 (DppA3) solute binding protein of Pseudomonas aeruginosa PAO1 (Pseudomonas aeruginosa PAO1) (UniProt Q9HVS1); experiment: differential scanning fluorimetry thermal shift assay
# PA4500 (DppA3) solute binding protein of Pseudomonas aeruginosa PAO1 (Pseudomonas aeruginosa PAO1), sequence (Q9HVS1 25-533): as above
# [4] = target: PA4497 (DppA2) solute binding protein of Pseudomonas aeruginosa PAO1 (Pseudomonas aeruginosa PAO1) (UniProt Q9HVS4); experiment: as above
molecule,measurement,setting,value
CC(C)CC(N)C(=O)NC(CC(C)C)C(=O)NC(CC(C)C)C(=O)O (stereo not drawn) [Leu-Leu-Leu] (H-Leu-Leu-Leu-OH; configuration not given here),Tm DSF (Tm increase),PA4497 (dppA2),5.0 °C
[O]=[Mo](=[O])([O-])[O-] [Molybdate],No Binding Observed by ITC,PA1493 (cysP),did not show any binding
same,Kd,"PA1863 (modA); Affinity by ITC, PA1863 (modA), value as printed in text",~10 nM
same,Kd,"PA1863 (modA); KD by ITC, PA1863 (modA), 25 °C",10 nM
N[C@@H](Cc1ccccc1)C(=O)NCC(=O)NCC(=O)O [Phe-Gly-Gly] (H-Phe-Gly-Gly-OH),Tm DSF (Tm increase),PA4497 (dppA2),8.3 °C
CC(C)[C@H](N)C(=O)N[C@@H](Cc1ccc(O)cc1)C(=O)N[C@H](C(=O)O)C(C)C [Val-Tyr-Val] (H-Val-Tyr-Val-OH),Tm DSF (Tm increase),PA4497 (dppA2),5.0 °C
same,Chemotaxis,[1],Yes (Positive chemotaxis was considered when the number of bacterial cells per capillary was superior to 5000.)
[O]=[V]([O-])([O-])[O-] [Vanadate],No Binding Observed by ITC,PA1863 (modA),did not reveal any binding
[O]=[Mn](=[O])([O-])[O-] [manganate],No Binding Observed by ITC,PA1863 (modA),did not reveal any binding
O=[Se](O)O [selenite],No Binding Observed by ITC,PA1493 (cysP),did not show any binding
CCC(N)C(=O)O (stereo not drawn) [α-aminobutyrate],Tm DSF (Tm increase),PA4913,8.1 °C
Ala-Ala (peptide),Ka,[2],4.71e+06 M⁻¹
same,Tm increase (DSF),[3],11.3 °C
Ala-Ala-Ala (peptide),Tm increase (DSF),[4],9.1 °C
Ala-His (peptide),Ka,[2],134000 M⁻¹
same,Tm increase (DSF),[3],3 °C
Ala-Phe (peptide),Ka,[2],162000 M⁻¹
same,Tm increase (DSF),[3],2 °C
Ala-Thr (peptide),Ka,[2],1.09e+06 M⁻¹
same,Tm increase (DSF),[3],7 °C
Gly-Gly-Ala (peptide),Tm increase (DSF),[4],7.6 °C
Gly-Gly-Gly (peptide),Tm increase (DSF),[4],4.4 °C
Gly-Gly-Ile (peptide),Tm increase (DSF),[4],5.1 °C
Gly-Gly-Phe (peptide),Tm increase (DSF),[4],3.7 °C
Gly-Phe-Phe (peptide),Tm increase (DSF),[4],6.6 °C
Gly-Val (peptide),Ka,[2],157000 M⁻¹
same,Tm increase (DSF),[3],2 °C
Leu-Gly-Gly (peptide),Tm increase (DSF),[4],3.2 °C
Leu-Leu-Leu (peptide),Tm increase (DSF),[4],5 °C
Phe-Gly-Gly (peptide),Tm increase (DSF),[4],8.3 °C
Tungstate,KD by ITC,"PA1863 (modA); PA1863 (modA), 25 °C",ultra-tightly; also recorded: Ultratight
same,Chemotaxis,[1],No (Positive chemotaxis was considered when the number of bacterial cells per capillary was superior to 5000.)
Val-Tyr-Val (peptide),Tm increase (DSF),[4],5 °C
phosphate,No Binding Observed by ITC,PA1493 (cysP),did not show any binding
